B1: Hairpin Ribozyme (parent)
chain: GUCCUCUUUCACGUGCGCGUGAAAGAGAGAAGUGAACCAGAGAAACACACGUUGUGGUAUAUUACCUGGUA

38 variants from the RNAGym collection of RNA variant scans (doi:10.7554/elife.80360) can be followed below.

In this data set the parent is B1. The experiment in a line: self-cleavage, relative activity (ratio to wild type); higher = more cleavage; co-transcriptional.
On to GUCCUCUUUCACGUGCGCGUGAAAUAGAGAAGUGAACCAGAGAAACACACGUUGUGGGAUAUUACCUGGUA [G25U U58G], for which the self-cleavage is 0.439.

GUCCUCUUUCACGUGCGCGUGAAAGCGAGGAGUGAACCAGAGAAACACACGUUGUGGUAUAUUACCUGGUA [A26C A30G]: the self-cleavage turned out to be 0.0971.

Regarding GUCCUCUUUCACGUGCGCGUGAAAGCGAGUAGUGAACCAGAGAAACACACGUUGUGGUAUAUUACCUGGUA [A26C A30U], the self-cleavage is 0.165.

In the case of GUCCUCUUUCACGUGCGCGUGAAAUAGAGAAGUGAACCAGAGAAAAACACGUUGUGGUAUAUUACCUGGUA [G25U C46A], the self-cleavage was 0.205.

For GUCCUCUUUCACGUGCGCGUGAAAUAGAGAAGUGAACCAGAGAAAUACACGUUGUGGUAUAUUACCUGGUA [G25U C46U], the self-cleavage is 0.157.

Regarding GUCCUCUUUCACGUGCGCGUGAAAUAGAGAAGUGAACCAGAGAAACACACGUUGUGGUAUAUUCCCUGGUA [G25U A64C], the self-cleavage stood at 0.177.

Regarding GUCCUCUUUCACGUGCGCGUGAAAGCGGGAAGUGAACCAGAGAAACACACGUUGUGGUAUAUUACCUGGUA [A26C A28G], the self-cleavage stood at 0.785.

Take GUCCUCUUUCACGUGCGCGUGAAAGCGAGAAGUGAACCAGAGAAACACAUGUUGUGGUAUAUUACCUGGUA [A26C C50U]: the self-cleavage came to 0.306.

As for GUCCUCUUUCACGUGCGCGUGAAAGCGAGAAGUGAACCAGAGAAAGACACGUUGUGGUAUAUUACCUGGUA [A26C C46G], the self-cleavage was 0.106.

For GUCCUCUUUCACGUGCGCGUGAAAUAGAGAAGUGAACCAGAGAAACAAACGUUGUGGUAUAUUACCUGGUA [G25U C48A], the self-cleavage turned out to be 0.143.

Take GUCCUCUUUCACGUGCGCGUGAAAUAGAGAAGUGAACCAGAGAAACAUACGUUGUGGUAUAUUACCUGGUA [G25U C48U]: the self-cleavage stood at 0.163.

In the case of GUCCUCUUUCACGUGCGCGUGAAAUAGAGAAGUGAACCAGAGAAACACAAGUUGUGGUAUAUUACCUGGUA [G25U C50A], the self-cleavage is 0.283.

On to GUCCUCUUUCACGUGCGCGUGAAAUAGAGAAGUGAACCAGAGAAACACACGUUGUGGUAUACUACCUGGUA [G25U U62C], for which the self-cleavage stood at 0.123.

Take GUCCUCUUUCACGUGCGCGUGAAAGCGAGAAGUGAACCAGAGAAUCACACGUUGUGGUAUAUUACCUGGUA [A26C A45U]: the self-cleavage was found to be 0.182.

Take GUCCUCUUUCACGUGCGCGUGAAAGCGAGAAGUGAACCAGAGAAGCACACGUUGUGGUAUAUUACCUGGUA [A26C A45G]: the self-cleavage worked out at 0.136.

Turning to GUCCUCUUUCACGUGCGCGUGAAAUAGAGAAGUGAACCAGAGAGACACACGUUGUGGUAUAUUACCUGGUA [G25U A44G], the self-cleavage stood at 0.165.

GUCCUCUUUCACGUGCGCGUGAAAUAGAGAAGUGAACCAGAGAUACACACGUUGUGGUAUAUUACCUGGUA [G25U A44U]: the self-cleavage is 0.113.

Take GUCCUCUUUCACGUGCGCGUGAAAUAGAGAAGUGAACCAGAGACACACACGUUGUGGUAUAUUACCUGGUA [G25U A44C]: the self-cleavage stood at 0.229.

As to GUCCUCUUUCACGUGCGCGUGAAAGCGAGAAGUGAAGCAGAGAAACACACGUUGUGGUAUAUUACCUGGUA [A26C C37G], the self-cleavage is 0.373.

On to GUCCUCUUUCACGUGCGCGUGAAAGCGAGAAGUGAAACAGAGAAACACACGUUGUGGUAUAUUACCUGGUA [A26C C37A], for which the self-cleavage came out at 0.156.

With GUCCUCUUUCACGUGCGCGUGAAAGCGAGAAGUGAACCAGAGAAACACACGUUGUGGUUUAUUACCUGGUA [A26C A59U], the self-cleavage was 0.245.

For GUCCUCUUUCACGUGCGCGUGAAAGCGAGAAGUGAACCAGAGAAACACACGUUGUGGUAUAUUACCUGGUA [A26C], the self-cleavage was determined as 0.708.

With GUCCUCUUUCACGUGCGCGUGAAAGCGAGAAGUGAACCAGAGAAACCCACGUUGUGGUAUAUUACCUGGUA [A26C A47C], the self-cleavage was found to be 0.199.

With GUCCUCUUUCACGUGCGCGUGAAAGCGAGAAGUGAACCAGCGAAACACACGUUGUGGUAUAUUACCUGGUA [A26C A41C], the self-cleavage is 0.734.

On to GUCCUCUUUCACGUGCGCGUGAAAUAGAGAAGUGAACCAGCGAAACACACGUUGUGGUAUAUUACCUGGUA [G25U A41C], for which the self-cleavage was 0.953.

As for GUCCUCUUUCACGUGCGCGUGAAAUAGAGAAGUGAACCAGGGAAACACACGUUGUGGUAUAUUACCUGGUA [G25U A41G], the self-cleavage was 0.611.

Consider GUCCUCUUUCACGUGCGCGUGAAAUAGAGAAGUGAACCAGAGAAACACACUUUGUGGUAUAUUACCUGGUA [G25U G51U], for which the self-cleavage is 0.671.

Turning to GUCCUCUUUCACGUGCGCGUGAAAUAGAGAAGUGAACCAGAGAAACACACAUUGUGGUAUAUUACCUGGUA [G25U G51A], the self-cleavage was determined as 0.613.

Regarding GUCCUCUUUCACGUGCGCGUGAAAUAGAGAAGUGAACCAGAGAAACACACGUUGUGGUAUAUUACUUGGUA [G25U C66U], the self-cleavage is 0.315.

Consider GUCCUCUUUCACGUGCGCGUGAAAGCGAGAAGUGAACCAGAGAAACAAACGUUGUGGUAUAUUACCUGGUA [A26C C48A], for which the self-cleavage stood at 0.045.

Take GUCCUCUUUCACGUGCGCGUGAAAGCGAGAAGUGAACCAGAGAAACAUACGUUGUGGUAUAUUACCUGGUA [A26C C48U]: the self-cleavage stood at 0.173.

Consider GUCCUCUUUCACGUGCGCGUGAAAUAGAGAAGUGAACCAGAGAAACACUCGUUGUGGUAUAUUACCUGGUA [G25U A49U], for which the self-cleavage worked out at 0.136.

Regarding GUCCUCUUUCACGUGCGCGUGAAAUAGAGAAGUGAACCAGAGAAACACACGUUGUGGUAUAUUACCUGGAA [G25U U70A], the self-cleavage was determined as 0.432.

Consider GUCCUCUUUCACGUGCGCGUGAAAUAGAGAAGUGAACCAGAGAAACACACGUUGUGGUAUAUUACCUGGCA [G25U U70C], for which the self-cleavage is 0.679.

On to GUCCUCUUUCACGUGCGCGUGAAAUAGAGAAGUGAACCAGAGAAACACACGUUGUGGUAUAUUACCUGGGA [G25U U70G], for which the self-cleavage was found to be 0.613.

GUCCUCUUUCACGUGCGCGUGAAAUAGAGAAGUGAACCAGAGAAACACACGUUGUGGUAGAUUACCUGGUA [G25U U60G]: the self-cleavage was 0.288.

Turning to GUCCUCUUUCACGUGCGCGUGAAAUAGAGAAGUGAACCAGAGAAACACACGUUGUGGUACAUUACCUGGUA [G25U U60C], the self-cleavage worked out at 0.885.

As to GUCCUCUUUCACGUGCGCGUGAAAUAGAGAAGUGAACCAGAGAAACACACGUUGUGGUAUAUUACCUGGUG [G25U A71G], the self-cleavage is 0.654.
